Ends that are not written are not given here.
T1: factor XII purified from human plasma (human, UniProt P00748 20-615)
T1 construct: mature; also called FXII
T1 sequence (looked up): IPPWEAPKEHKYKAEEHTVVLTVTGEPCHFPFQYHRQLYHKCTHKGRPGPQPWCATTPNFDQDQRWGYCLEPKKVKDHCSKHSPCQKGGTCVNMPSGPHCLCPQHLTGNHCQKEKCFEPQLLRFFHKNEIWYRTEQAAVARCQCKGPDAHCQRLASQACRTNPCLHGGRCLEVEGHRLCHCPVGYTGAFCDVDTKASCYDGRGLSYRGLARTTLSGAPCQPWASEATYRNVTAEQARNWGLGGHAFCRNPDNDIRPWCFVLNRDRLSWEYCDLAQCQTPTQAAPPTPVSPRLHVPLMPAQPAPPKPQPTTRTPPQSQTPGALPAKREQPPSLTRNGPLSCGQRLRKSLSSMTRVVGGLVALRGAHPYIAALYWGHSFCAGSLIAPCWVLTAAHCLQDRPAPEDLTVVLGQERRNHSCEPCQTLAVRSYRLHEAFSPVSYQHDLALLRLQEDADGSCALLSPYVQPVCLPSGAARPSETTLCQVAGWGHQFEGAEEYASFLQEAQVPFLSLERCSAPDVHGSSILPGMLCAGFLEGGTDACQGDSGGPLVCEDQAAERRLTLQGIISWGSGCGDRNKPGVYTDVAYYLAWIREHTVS

B1: tissue-type plasminogen activator (tPA) (enzyme, human, UniProt P00750 36-562, looked up)
chain: SYQVICRDEKTQMIYQQHQSWLRPVLRSNRVEYCWCNSGRAQCHSVPVKSCSEPRCFNGGTCQQALYFSDFVCQCPEGFAGKCCEIDTRATCYEDQGISYRGTWSTAESGAECTNWNSSALAQKPYSGRRPDAIRLGLGNHNYCRNPDRDSKPWCYVFKAGKYSSEFCSTPACSEGNSDCYFGNGSAYRGTHSLTESGASCLPWNSMILIGKVYTAQNPSAQALGLGKHNYCRNPDGDAKPWCHVLKNRRLTWEYCDVPSCSTCGLRQYSQPQFRIKGGLFADIASHPWQAAIFAKHRRSPGERFLCGGILISSCWILSAAHCFQERFPPHHLTVILGRTYRVVPGEEEQKFEVEKYIVHKEFDDDTYDNDIALLQLKSDSSRCAQESSVVRTVCLPPADLQLPDWTECELSGYGKHEALSPFYSERLKEAHVRLYPSSRCTSQHLLNRTVTDNMLCAGDTRSGGPQANLHDACQGDSGGPLVCLNDGRMTLVGIISWGLGCGQKDVPGVYTKVTNYLDWIRDNMRP
notes: Full-length recombinant tPA; also called Actilyse; Alteplase
B2: abciximab (ReoPro) (Fab, V domains shown)
VH: EVQLQQSGTVLARPGASVKMSCEASGYTFTNYWMHWVKQRPGQGLEWIGAIYPGNSDTSYIQKFKGKAKLTAVTSTTSVYMELSSLTNEDSAVYYCTLYDGYYVFAYWGQGTLVTVSA
VL: EIVLTQSPVTLSVTPGDSVSLSCRASRDISNNLHWFQQTSHESPRLLIKYASQSMSGIPSRFSGSGSGTDFTLSINSVETEDFGMYFCQQTNSWPYTFGGGTKLEIK
B3: recombinant human β2-glycoprotein I (other, UniProt P02749 20-345, looked up)
chain: GRTCPKPDDLPFSTVVPLKTFYEPGEEITYSCKPGYVSRGGMRKFICPLTGLWPINTLKCTPRVCPFAGILENGAVRYTTFEYPNTISFSCNTGFYLNGADSAKCTEEGKWSPELPVCAPIICPPPSIPTFATLRVYKPSAGNNSLYRDTAVFECLPQHAMFGNDTITCTTHGNWTKLPECREVKCPFPSRPDNGFVNYPAKPTLYYKDKATFGCHDGYSLDGPEEIECTKLGNWSAMPSCKASCKVPVKKATVVYQGERVKIQEKFKNGMLHGDKVSFFCKNKEKKCSYTEDAQCIDGTIEVPKCFKEHSSLAFWKTDASDVKPC
notes: also called recombinant β2GPI; rec. β2GPI
B4: chemically synthesized F domain of tPA (tPA F) (other, human)
chain: VICRDEKTQMIYQQHQSWLRPVLRSNRVEYCWCNSGRAQCHSVK
modifications: cysteine pairing not given here; also: added C-terminal Lys acetylated or biotinylated
notes: domain: F domain; Immobilized on the second Biacore chip; also called tPA F domain
B5: chemically synthesized F domain of hepatocyte growth factor activator (HGFA F) (other)
chain: EKCFDETRYEYLEGGDRWARVRQGHVEQCECFGGRTWCEGTK
modifications: added carboxy-terminal lysine residue is acetylated
notes: domain: F domain; Made by native chemical ligation of two peptides; also called HGFA F domain
B6: endostatin (EntreMed) (other, UniProt P39060 1572-1754, looked up)
chain: HSHRDFQPVLHLVALNSPLSGGMRGIRGADFQCFQQARAVGLAGTFRAFLSSRLQDLYSIVRRADRAAVPIVNLKDELLFPSWEALFSGSEGPLKPGARIFSFDGKDVLRHPTWPQKSVWHGSDPNGRRLTESYCETWRTEAPSATGQASSLLGGRLLGQSAASCHHAYIVLCIENSFMTASK
notes: also called protein therapeutic endostatin

Assays:
[1] = target: B2; assay: ELISA, therapeutic coated, tPA concentration series, one-site binding fit
Protocol: (§1) Nunc Immobilizer plates (Nalge Nunc, #436013, Rochester, N.Y., USA) were coated with 50 μL containing 5 μg/mL of sample protein (unless indicated otherwise) in 100 mM NaHCO₃, pH 9.6, 0.05% m/v NaN₃ for 1 hour at room temperature. Plates were washed twice with Tris buffered saline pH 7.2 containing 0.1% Tween20 (TBST) and blocked with PBS containing 1% Tween20 for 1 hour at room temperature. […] Plates were washed five times with TBST and incubated with peroxidase labeled anti-mouse immunoglobulins (RAMPO; DAKOCytomation, Glostrup, Denmark) diluted 1:3000 in PBST for 30 minutes at room temperature. Plates were washed five times with PBS 0.1% Tween20, and stained with 100 μL/well of tetramethyl-benzidine (TMB) substrate (Biosource Europe, Nivelles, Belgium). The reaction was terminated with 50 μL/well of 2 M H₂SO₄ and substrate conversion was read at 450 nm on a Spectramax340 microplate reader. Curves were fitted with a one-site binding model (GraphPad Prism version 4.02 for Windows, Graphpad Software, CA, USA) from which Kd and Bmax were determined.

[2] = target: T2, recombinant human Zn2+-chelated insulin (Monotard) (human, UniProt P01308 90-110; P01308 25-54); assay: as above
T2 construct: mature; Zinc suspension; also called zinc-insulin; zinc-chelated insulin
Protocol: as §1

[3] = target: T3, human albumin (Cealb) (human, UniProt P02768 25-609); assay: as above
T3 construct: mature
Protocol: as §1

[4] = target: T4, rapid acting human insulin analogue (NovoRapid Flexpen) (human, UniProt P01308 90-110; P01308 25-54); assay: as above
T4 construct: mature; also called Insulin Aspart; Novo Rapid insulin
Protocol: as §1

[5] = target: T5, advanced glycation end-product modified bovine serum albumin (albumin-AGE) (bovine, UniProt P02769 25-607, glycated (advanced glycation end-products; 1 M glucose-6-phosphate, 37 °C, up to 23 weeks); sites not stated); assay: SPR (Biacore), immobilized tPA
T5 construct: Misfolded, cross-β structure containing preparation; also called BSA-AGE; glycated BSA
T5 sequence (P02769 25-607 limits assumed): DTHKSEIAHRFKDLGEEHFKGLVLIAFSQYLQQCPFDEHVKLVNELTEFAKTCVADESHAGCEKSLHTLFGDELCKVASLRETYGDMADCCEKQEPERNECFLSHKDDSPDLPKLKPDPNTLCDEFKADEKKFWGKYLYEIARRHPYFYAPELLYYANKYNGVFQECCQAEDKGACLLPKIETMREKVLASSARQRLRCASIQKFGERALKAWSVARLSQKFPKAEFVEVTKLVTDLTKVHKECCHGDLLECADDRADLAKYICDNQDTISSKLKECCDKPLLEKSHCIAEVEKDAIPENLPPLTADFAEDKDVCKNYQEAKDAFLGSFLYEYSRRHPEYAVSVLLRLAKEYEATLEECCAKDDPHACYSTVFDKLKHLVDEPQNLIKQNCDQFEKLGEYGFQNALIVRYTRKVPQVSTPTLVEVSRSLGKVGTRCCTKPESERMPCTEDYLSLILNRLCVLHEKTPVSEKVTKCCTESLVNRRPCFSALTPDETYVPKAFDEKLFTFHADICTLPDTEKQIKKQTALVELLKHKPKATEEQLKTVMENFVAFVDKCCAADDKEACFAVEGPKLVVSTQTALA
Protocol: EDC, NHS and ethanolamine hydrochloride were obtained from Biacore. […] The flow rate was 10 μl min.⁻¹, the injection time was 120″. The running buffer during immobilization was 10 mM HEPES pH 7.4, 140 mM NaCl. Buffers were filtrated on a 0.22 μm filter (white GSWP, 47 mm, Millipore) and degassed at room temperature. For subsequent binding experiments, the running buffer was 10 mM HEPES pH 7.4, 140 mM NaCl, 1.5 mM CaCl₂, 10 mM εACA, 0.005% Tween-20. […] After each injection of protein, the chip was regenerated with 0.1 M H₃PO₄ pH 1.0.

[6] = target: B1; assay: ELISA, therapeutic coated, tPA concentration series, one-site binding fit
Protocol: as §1

[7] = target: B1; assay: cell-based or functional assay
[8] = target: T1, factor XII purified from human plasma; assay: ELISA, factor XII immobilized, β2GPI concentration series
Protocol: (§2) Binding of β₂GPI was assessed with monoclonal antibody 2B2¹³.
(§3) C. […] D. Western blot incubated with anti-human factor XII antibody. […] Eluted fractions are analyzed on Western blot after SDS-PA electrophoresis. […] The molecular mass of factor XII is 80 kDa. […] Anti-β₂GPI auto-antibodies were purified from plasma of patients with the auto-immune disease Anti-phospholipid syndrome. […] Signals are corrected for background fluorescence of CL, DXS, ThT and buffer.

[9] = target: T1, factor XII purified from human plasma; assay: ELISA, factor XII coated, β2GPI concentration series, antibody 2B2
Protocol: as §2, §3

[10] = target: B1; assay: ELISA, tPA immobilized, β2GPI concentration series
Protocol: as §2, §3

[11] = target: B1; assay: ELISA, tPA coated, β2GPI concentration series, antibody 2B2
Protocol: as §2, §3

[12] = target: T6, fibronectin F4-5 domains with carboxy-terminal His6-tag, expressed in S. cerevisiae (Fn F4-5-His6) (human, UniProt P02751 182-276); assay: SPR (Biacore), Fn F4-5 on CM5 chip, concentration of ligand at half maximum binding
T6 construct: range 182-276; also called Fn F4-5 doublet
T6 sequence (P02751 other isoform, or with tags, fused parts or gaps limits assumed): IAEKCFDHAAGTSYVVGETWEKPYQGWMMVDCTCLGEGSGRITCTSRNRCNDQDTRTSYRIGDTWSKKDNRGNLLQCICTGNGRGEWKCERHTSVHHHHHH
Protocol: (§4) Now, the running buffer was 10 mM HEPES pH 7.4, 140 mM NaCl, 1.5 mM CaCl₂, 10 mM εACA, 0.05% Tween-20. Regeneration buffer was running buffer supplemented with 1 M NaCl.

[13] = target: B3; assay: SPR (Biacore), tPA F immobilized on CM5 chip
Protocol: as §4

[14] = target: B6; assay: SPR (Biacore), tPA F immobilized on CM5 chip
Protocol: as §4

[15] = target: B3; assay: SPR (Biacore), HGFA F immobilized on CM5 chip
Protocol: as §4

[16] = target: B6; assay: SPR (Biacore), HGFA F immobilized on CM5 chip
Protocol: as §4

Binder: B1
- Bmax (OD450 nm) [1]: 0.533 OD450 nm
- Bmax (OD450 nm) [2]: 0.756 OD450 nm
- Bmax (OD450 nm) [3]: 1.23 OD450 nm
- Bmax (OD450 nm) [4]: 3.62 OD450 nm
- binding result [5]: binds

Binder: B2
- Kd [6]: 0.216 µM
- tPA activation, Max. Activation (%) [7]: 0%

Binder: B3
- Kd [8]: 0.9 mg/L
- Kd [9]: 0.02 µM
- Kd [10]: 2.3 mg/L
- Kd [11]: 0.051 µM
- EC50 [12]: 0.165 µM

Binder: B4
- binding result [13]: no binding (tested: 0-300 nM)
- binding result [14]: no binding (tested: 0-800 nM)

Binder: B5
- binding result [15]: no binding (tested: 0-300 nM)
- binding result [16]: no binding (tested: 0-800 nM)

Binder: B6
- EC50 [12]: 0.8 µM

Source: patent publication US20080207488A1 (published 2008)
